Earlier results as cited in PMC6716794.

How the values were obtained:
[1] = molecular target: thrombin ABE II (UniProt P00734)
[2] = molecular target: Thrombin (Homo sapiens) (UniProt P00734)
[3] = molecular target: thrombin ABE I (UniProt P00734); assay: NMR

Sequence of PAR3GEL (O00254 39-374): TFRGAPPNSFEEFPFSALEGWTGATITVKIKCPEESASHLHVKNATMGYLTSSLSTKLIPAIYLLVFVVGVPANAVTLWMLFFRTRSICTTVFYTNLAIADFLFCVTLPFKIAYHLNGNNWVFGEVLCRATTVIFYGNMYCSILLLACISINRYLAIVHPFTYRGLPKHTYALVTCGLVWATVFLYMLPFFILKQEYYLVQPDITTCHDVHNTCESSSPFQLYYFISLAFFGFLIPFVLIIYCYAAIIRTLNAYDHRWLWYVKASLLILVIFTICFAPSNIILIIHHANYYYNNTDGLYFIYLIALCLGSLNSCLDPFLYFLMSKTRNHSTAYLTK

Substance | Kd [1] | Kd [2] | Kd [3]
GpIbα 269-286 (from UniProt P07359) | 5.9 nM | 5.9 nM | –
PAR3GEL (from UniProt O00254) | – | – | 47000 nM
